# Data from patent publication US20040259075A1 (US Dept. of Health and Human Services, published 2004).
# What was measured:
# [1] = biological target: T1, protein G cross-linked to Sepharose beads; test: binding to protein G cross-linked to Sepharose beads; method not stated
# T1 construct: also called protein G beads; Protein G-Sepharose beads
# [2] = biological target: T2, gp120-CD4-CCR5 complex (JRFL gp120) used for the X5 selection (HIV-1 JRFL); test: binding to the complex used for selection; method not stated
# [3] = biological target: T3, gp120 89.6 (HIV-1 89.6, UniProt Q73372 32-508); test: ELISA, antigen coated, Langmuir isotherm fit (FIG. 2 legend)
# T3 construct: domain: gp120
# [4] = biological target: T4, gp120JRFL+sCD4 complex (HIV-1 JRFL); test: ELISA, antigen coated (FIG. 1)
# T4 construct: domain: gp120;domain: two-domain soluble CD4 (D1D2)
# [5] = biological target: gp120 JRFL (HIV-1 JRFL, UniProt P20871 32-503); test: ELISA, antigen coated (FIG. 1)
# [6] = biological target: T5, sCD4-gp120 89.6 complex (HIV-1 89.6, UniProt Q73372 32-508; P01730 26-208); test: ELISA, antigen coated, Langmuir isotherm fit (FIG. 2)
# T5 construct: domain: gp120;domain: two-domain soluble CD4 (D1D2)
# [7] = biological target: T3, gp120 89.6; test: as above
# [8] = biological target: T2, gp120-CD4-CCR5 complex (JRFL gp120) …; test: effective affinity of phage for the bead-bound complex; method not stated
# [9] = biological target: T1, protein G cross-linked to Sepharose …; test: effective affinity of phage for beads; reference is the gp120-CD4-CCR5 complex
# [10] = biological target: T1, protein G cross-linked to Sepharose …; test: effective affinity of phage for protein G beads; method not stated
binder,measurement,setting,value
"X5 Fab (Fab, also called Fab X5; antibody Fab fragment X5) heavy: EVQLLEQSGAEVKKPGSSVQVSCKASGGTFSMYGFNWVRQAPGHGLEWMGGIIPIFGTSNYAQKFRGRVTFTADQATSTAYMELTNLRSDDTAVYYCARDFGPDWEDGDSYDGSGRGFFDFWGQGTLVTVSSASTKGPSVFPLAPSSKSTSGGTAALGCLVKDYFPEPVTVSWNSGALTSGVHTFPAVLQSSGLYSLSSVVTVPSSSLGTQTYICNVNHKPSNTKVDKKVEPKSCDKTS light: AELVLTQSPGTLSLSAGERATLSCRASQSVSSGSLAWYQQKPGQAPRLLIYGASTRATGIPDRFSGSGSGTDFTLTIGRLEPEDLAVYYCQQYGTSPYTFGQGTKLEIKRTVAAPSVFIFPPSDEQLKSGTASVVCLLNNFYPREAKVQWKVDNALQSGNSQESVTEHDSRDSTYSLGSTLTLSKADYEKHKVYACEVTHQGLSSPVTKSFNRGEC",Kd,[1],15 nM
same,Kd,[2],1 nM
same,Kd,[3],9.3 nM
same,Kd,[4],2 nM
same,Kd,[5],10 nM
same,Kd,[6],1 nM
same,Kd,[7],9.4 nM
"Phage-displayed X5 (Fab, also called phage X5; not shown: phage gene III fragment of the phagemid) heavy: EVQLLEQSGAEVKKPGSSVQVSCKASGGTFSMYGFNWVRQAPGHGLEWMGGIIPIFGTSNYAQKFRGRVTFTADQATSTAYMELTNLRSDDTAVYYCARDFGPDWEDGDSYDGSGRGFFDFWGQGTLVTVSSASTKGPSVFPLAPSSKSTSGGTAALGCLVKDYFPEPVTVSWNSGALTSGVHTFPAVLQSSGLYSLSSVVTVPSSSLGTQTYICNVNHKPSNTKVDKKVEPKSCDKTS light: AELVLTQSPGTLSLSAGERATLSCRASQSVSSGSLAWYQQKPGQAPRLLIYGASTRATGIPDRFSGSGSGTDFTLTIGRLEPEDLAVYYCQQYGTSPYTFGQGTKLEIKRTVAAPSVFIFPPSDEQLKSGTASVVCLLNNFYPREAKVQWKVDNALQSGNSQESVTEHDSRDSTYSLGSTLTLSKADYEKHKVYACEVTHQGLSSPVTKSFNRGEC",Kd,[8],0.09 nM
same,fold lower effective affinity than for the gp120-CD4-CCR5 complex,[9],15 fold
same,Kd,[10],1.4 nM
